Measured values: patent US20160369268

Legend:
Assay in all cases: cell_activity
[1] = tested on: TALETRE#4-KRAB (synthetic (Xanthomonas TALE)); details: 50 ng, against TALETRE#4-VP16-induced AmCyan
[2] = tested on: TALECMV-KRAB (synthetic (Xanthomonas TALE)); details: 100 ng, CMV-mKate-PEST in HEK293; only 19% on TRE/CMVmin AmCyan at 50 ng
[3] = tested on: TALETRE#3-KRAB (synthetic (Xanthomonas TALE)); details: 50 ng, against TALETRE#4-VP16-induced AmCyan

For “ATCAGTGATAGAGAAC (double strand) [TRE target of TALETRE#4]”, the activity [1] was 80 % repression.

Sequence “CTATATAAGCAGAGCT (double strand) [CMV TATA box region target]” has an activity [2] of 93 % repression.

“CCCTATCAGTGAT (double strand) [TRE target of TALETRE#3]” gave an activity [3] of 84 % repression.
